We go through one molecule from US20210361653A1 (MAYO FOUNDATION FOR MEDICAL EDUCATION AND RESEARCH, published 2021).

The target of assay [1] is T1, BRD4 SBC motif-deleted mutant (human, UniProt O60885 1-1362, limits assumed).
T1 construct: Deletion mutant; also called FLAG-BRD4 mutant; not shown: FLAG tag
The experiment in a line: co-IP with anti-FLAG antibody, 293T cells.

The target in assay [2] is T2, BRD3 SBC motif-deleted mutant (human, UniProt Q15059 1-726, limits assumed).
T2 construct: Deletion mutant; also called FLAG-BRD3 mutant; not shown: FLAG tag
The experiment in a line: co-IP with anti-FLAG antibody, 293T cells.

For assay [3], the target named is T3, BRD2 SBC motif-deleted mutant (human, UniProt P25440 1-801, limits assumed).
T3 construct: Deletion mutant; also called FLAG-BRD2 mutant; not shown: FLAG tag
Kind of assay: co-IP with anti-FLAG antibody, 293T cells.

In a further assay the target is T4, BRD2 (human, UniProt P25440 1-801).
T4 construct: also called bromodomain containing 2; FLAG-BRD2
Kind of assay: co-immunoprecipitation, 293T (ectopic) and LNCaP (endogenous) cells. The method, then:
(§1) To immunoprecipitate the ectopically expressed FLAG-tagged proteins, transfected cells were lysed 24 hours post-transfection in BC100 buffer. The whole-cell lysates were immunoprecipitated with the monoclonal anti-FLAG antibody-conjugated M2 agarose beads (Sigma-Aldrich) at 4° C. overnight. After three washes with lysis buffer, followed by two washes with BC100 buffer, the bound proteins were eluted using FLAG-Peptide (Sigma-Aldrich) prepared in BC100 for 3 hours at 4° C. The eluted protein sample was resolved by SDS-PAGE. To immunoprecipitate the endogenous proteins, cells were lysed with 1× cell lysis buffer (Cell Signaling Technology), and the lysate was centrifuged. The supernatant was precleared with protein AIG beads (Sigma-Aldrich) and incubated with the indicated antibody and protein A/G beads at 4° C. overnight. Beads were washed five times with lysis buffer and resuspended in sample buffer and analyzed by SDS-PAGE.
(§2) To identify new degradation substrates of SPOP, yeast two-hybrid screens using the full-length SPOP as bait were performed.

A further assay addresses T5, BRD3 (human, UniProt Q15059 1-726).
T5 construct: also called bromodomain containing 3; FLAG-BRD3
The assay is described as above. The protocol: as §1, §2

B1: SPOP, wild-type (other, human, UniProt O43791 1-374, looked up)
chain: MSRVPSPPPPAEMSSGPVAESWCYTQIKVVKFSYMWTINNFSFCREEMGEVIKSSTFSSGANDKLKWCLRVNPKGLDEESKDYLSLYLLLVSCPKSEVRAKFKFSILNAKGEETKAMESQRAYRFVQGKDWGFKKFIRRDFLLDEANGLLPDDKLTLFCEVSVVQDSVNISGQNTMNMVKVPECRLADELGGLWENSRFTDCCLCVAGQEFQAHKAILAARSPVFSAMFEHEMEESKKNRVEINDVEPEVFKEMMCFIYTGKAPNLDKMADDLLAAADKYALERLKVMCEDALCSNLSVENAAEILILADLHSADQLKTQAVDFINYHASDVLETSGWKSMVVSHPHLVAEAYRSLASAQCPFLGPPRKRLKQS
notes: also called SPOP-WT; Myc-SPOP
As for B1, the binding result in assay [1] is “no binding”; in assay [2], “no binding”; in assay [3], “no binding”; with BRD2, “binds”; with BRD3, “binds”.
